# Changes are numbered by the printed parent chain.
# T1: STF-HD WT (Medicago truncatula, UniProt G0ZGT3 85-190)
# T1 sequence: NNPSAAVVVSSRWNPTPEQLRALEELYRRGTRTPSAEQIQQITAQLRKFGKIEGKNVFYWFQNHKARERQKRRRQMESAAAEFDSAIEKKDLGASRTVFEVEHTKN
# T2: STF-HD F167A/I171A (Medicago truncatula, UniProt G0ZGT3 85-190, F167A;I171A)
# T2 sequence: T1 sequence with F83A, I87A
# T3: STF-HD S169E (Medicago truncatula, UniProt G0ZGT3 85-190, S169E)
# T3 sequence: T1 sequence with S85E
# T4: His-MBP-STF85-190 R151A (Medicago truncatula, UniProt G0ZGT3 85-190, R151A)
# T4 sequence: T1 sequence with R67A
# T5: STF-HD L107M/L110M/L130M (STF_3M-HD) (Medicago truncatula, UniProt G0ZGT3 85-190, L107M;L110M;L130M)
# T5 sequence: T1 sequence with L23M, L26M, L46M
# T6: His-MBP-STF85-190 R113Q (Medicago truncatula, UniProt G0ZGT3 85-190, R113Q)
# T6 sequence: T1 sequence with R29Q
# T7: His-MBP-STF85-190 R96A (Medicago truncatula, UniProt G0ZGT3 85-190, R96A)
# T7 sequence: T1 sequence with R12A
# B1: MtLOB39 22 bp FAM (dsDNA)
# DNA 1: GCAAATTAATGATTTATTCAAG
# DNA 2: CTTGAATAAATCATTAATTTGC
# B2: TAAT probe (TAAT motifs) (dsDNA)
# DNA 1: GCAAATTAATTATTTATTAAAG
# DNA 2: CTTTAATAAATAATTAATTTGC
# B3: MtLOB39 22 bp (crystal) (dsDNA)
# DNA 1: GCAAATTAATGATTTATTCAAG
# DNA 2: CTTGAATAAATCATTAATTTGC
# B4: MtAS2 22 bp FAM (dsDNA)
# DNA 1: TGGATTTAATAATGAAGTGACA
# DNA 2: TGTCACTTCATTATTAAATCCA
# B5: MtAS2 22 bp biotin (dsDNA)
# DNA 1: TGGATTTAATAATGAAGTGACA
# DNA 2: TGTCACTTCATTATTAAATCCA
# Experiments:
# STF-HD WT [1] = biological target: T1, STF-HD WT; test: EMSA (agarose); stable complex at 1:4 DNA:protein; PAGE EMSA: 10 mM Tris-HCl pH 7.5, 100 mM KCl, 1 mM DTT, 2.5% glycerol, 5 ng/ul poly(dI-dC), 0.05% NP-40, 0.05 ug/ul protein, 5 fmol/ul DNA, room temperature 30; settings: protein: recombinant; tags: 6xHis-MBP removed by TEV; chain copies: 4; label: 5' 6-FAM; blunt
# STF-HD F167A/I171A = biological target: T2, STF-HD F167A/I171A; test: fluorescence polarization; no significant decrease vs WT; value only in figure; PAGE EMSA: 10 mM Tris-HCl pH 7.5, 100 mM KCl, 1 mM DTT, 2.5% glycerol, 5 ng/ul poly(dI-dC), 0.05% NP-40, 0.05 ug/ul protein, 5 fmol/ul DNA, room temperature 30; settings: protein: recombinant; tags: 6xHis-MBP removed by TEV; label: 5' 6-FAM; blunt
# STF-HD S169E = biological target: T3, STF-HD S169E; test: as above; settings: protein: recombinant; tags: 6xHis-MBP removed by TEV; label: 5' 6-FAM; blunt
# His-MBP-STF85-190 R151A = biological target: T4, His-MBP-STF85-190 R151A; test: EMSA; binding retained; PAGE EMSA: 10 mM Tris-HCl pH 7.5, 100 mM KCl, 1 mM DTT, 2.5% glycerol, 5 ng/ul poly(dI-dC), 0.05% NP-40, 0.05 ug/ul protein, 5 fmol/ul DNA, room temperature 30; settings: protein: recombinant; tags: N-terminal 6xHis-MBP; label: 3' biotin; blunt
# STF-HD WT [2] = biological target: T1, STF-HD WT; test: X-ray crystallography (2.1 A); PAGE EMSA: 10 mM Tris-HCl pH 7.5, 100 mM KCl, 1 mM DTT, 2.5% glycerol, 5 ng/ul poly(dI-dC), 0.05% NP-40, 0.05 ug/ul protein, 5 fmol/ul DNA, room temperature 30; settings: protein: recombinant; tags: 6xHis-MBP removed by TEV; chain copies: 4; blunt
# [3] = biological target: T5, STF-HD L107M/L110M/L130M (STF_3M-HD); test: X-ray crystallography (SAD); SeMet protein; PAGE EMSA: 10 mM Tris-HCl pH 7.5, 100 mM KCl, 1 mM DTT, 2.5% glycerol, 5 ng/ul poly(dI-dC), 0.05% NP-40, 0.05 ug/ul protein, 5 fmol/ul DNA, room temperature 30; settings: protein: recombinant, tags: 6xHis-MBP removed by TEV, chain copies: 4, blunt
# His-MBP-STF85-190 R113Q = biological target: T6, His-MBP-STF85-190 R113Q; test: EMSA; not affected; PAGE EMSA: 10 mM Tris-HCl pH 7.5, 100 mM KCl, 1 mM DTT, 2.5% glycerol, 5 ng/ul poly(dI-dC), 0.05% NP-40, 0.05 ug/ul protein, 5 fmol/ul DNA, room temperature 30; settings: protein: recombinant; tags: N-terminal 6xHis-MBP; label: 3' biotin; blunt
# His-MBP-STF85-190 R96A = biological target: T7, His-MBP-STF85-190 R96A; test: EMSA; PAGE EMSA: 10 mM Tris-HCl pH 7.5, 100 mM KCl, 1 mM DTT, 2.5% glycerol, 5 ng/ul poly(dI-dC), 0.05% NP-40, 0.05 ug/ul protein, 5 fmol/ul DNA, room temperature 30; settings: protein: recombinant; tags: N-terminal 6xHis-MBP; label: 3' biotin; blunt
binder,measurement,setting,value
B1,binding result,STF-HD WT [1],binds
same,binding result,STF-HD F167A/I171A,binds
same,binding result,STF-HD S169E,binds
B2,binding result,His-MBP-STF85-190 R151A,binds
B3,binding result,STF-HD WT [2],binds
same,binding result,[3],binds
B4,binding result,STF-HD WT [1],binds
B5,binding result,His-MBP-STF85-190 R113Q,binds
same,binding result,His-MBP-STF85-190 R96A,no binding
